Results taken from paper doi:10.1101/2023.06.22.546067 (bioRxiv, 2023).
Where a chain is given by its changes, count along the chain named. In names and notes the source's numbering stands.

B1: phage P4 polarity suppression protein Psu, wild-type (Psu^wt), purified (natural protein)
chain: MESTALQQAFDTCQNNKAAWLQRKNELAAAEQEYLRLLSGEGRNVSRLDELRNIIEVRKWQVNQAAGRYIRSHEAVQHISIRDRLNDFMQQHGTALAAALAPELMGYSELTAIARNCAIQRATDALREALLSWLAKGEKINYSAQDSDILTTIGFRPDVASVDDSREKFTPAQNMIFSRKSAQLASRQSV
B2: Psu variant R43A (Psu^R43A), purified (natural protein)
chain: B1 chain with R43A

Legend:
[1] = molecular target: the molecule itself; test: cryo-EM structure
[2] = molecular target: T1, transcription termination factor ρ variant P167L (ρ^P167L), purified (E. coli, UniProt P0AG30, P167L); test: stopped-flow/FRET
[3] = molecular target: T1, transcription termination factor ρ …; test: SEC

| Binder | stoichiometry N [1] | binding result [2] | binding result [3] |
| --- | --- | --- | --- |
| B1 | 2 | binds |  |
| B2 |  |  | binds |
